Patent publication EP2468858B1

Molecular target: FGF-21 receptor on differentiated 3T3-L1 fat cells (mouse)
Experiment: cell-based or functional assay

Glucose uptake CPM of 3T3-L1 fat cells at 0 nM protein (baseline): 1880 CPM
Glucose uptake CPM of 3T3-L1 fat cells at 0.03 nM protein: 1800 CPM
Glucose uptake CPM of 3T3-L1 fat cells at 0.15 nM protein: 2110 CPM
Glucose uptake CPM of 3T3-L1 fat cells at 0.8 nM protein: 2200 CPM
Glucose uptake CPM of 3T3-L1 fat cells at 4 nM protein: 3300 CPM
Glucose uptake CPM of 3T3-L1 fat cells at 20 nM protein: 5130 CPM
Glucose uptake CPM of 3T3-L1 fat cells at 100 nM protein: 5320 CPM
Substance: recombinant human FGF-21 (from Chongqing Fagen Biomedical Inc.) (from UniProt Q9NSA1 29-209) (ligand)
